Assay results from patent US20160362487A1 (Regeneron, published 2016).
Substitutions are numbered along the chain they refer to. Numbers in names are those of the source.

T1: human IL-33 (R&D Systems, #3625-IL-010/CF) (human, UniProt O95760 112-270)
T1 construct: Commercial recombinant protein; also called hIL-33; interleukin-33
T1 sequence (looked up): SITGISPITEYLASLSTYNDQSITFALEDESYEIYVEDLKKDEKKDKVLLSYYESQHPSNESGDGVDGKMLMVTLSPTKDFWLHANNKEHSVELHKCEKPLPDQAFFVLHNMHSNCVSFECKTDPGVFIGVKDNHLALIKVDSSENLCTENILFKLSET

T2: cynomolgus monkey IL-33 expressed with a C-terminal hexahistidine tag (cynomolgus monkey)
T2 construct: also called MfIL-33-6His; Mf-IL-33-6His
T2 chain: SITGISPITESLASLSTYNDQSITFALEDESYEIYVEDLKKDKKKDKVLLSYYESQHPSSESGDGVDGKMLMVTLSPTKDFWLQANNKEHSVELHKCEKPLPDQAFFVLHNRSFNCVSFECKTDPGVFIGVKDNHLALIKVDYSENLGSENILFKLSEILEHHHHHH

B1: H4H9640P (antibody, human IgG4, V domains shown)
VH: QVQLQESGPGLVKPSETLSLTCTVSGGSISSYYWSWIRQPPGKGLELIGYIYYSGSTNYNPSLKSRVTISVDTSKNHFSLKLSSVTAADTAVYYCARSQYTSSWYGSFDIWGQGTMVTVSS
VL: DIQMTQSPSSVSASVGDRVTITCRASQGISTWLAWFQQKPGKAPKLLIYAASTLQGGVPSRFSGSGSGPEFTLTISSLQPEDFATYYCQQANSFPWTFGQGTKVEIK
notes: Human IgG4 Fc (H4H)
B2: H4H9629P (antibody, human IgG4, V domains shown)
VH: EVQLVESGGGLVQPGGSLRLSCAASGFTFRSFAMSWVRQAPGKGLELVSDLRTSGGSTYYADSVKGRLTISRDNSKNTLYLQMNSLRAEDTAVYYCAKSHYSTSWFGGFDYWGQGTLVTVSS
VL: DIQMTQSPSSVSASVGDRVTITCRASQGFSSWLAWYQQKPGKAPKLLIYAASSLQSGVPSRFSGSGSGTDFTLTITNLQPEDFATYYCQQANSFPLTFGGGTKVEIK
notes: Human IgG4 Fc (H4H)
B3: H4H9660P (antibody, human IgG4, V domains shown)
VH: EVQLVESGGGLVQPGGSLRLSCAASGITLSSYGMSWVRQAPGKGLEWVASIFGSGGGPYYADSVKGRFTMSRDNSKNTLYLQMNSLRAEDTAVYYCAKDRYSGSYYGGFDYWGRGTLVTVSS
VL: B2 VL with F29I, S30T, K45T, S56T, T76S, N77S, D82H, L96P
notes: Human IgG4 Fc (H4H)
B4: H4H9662P (antibody, V domains shown)
VH: EVQLVESGGGLVQPGGSLRLSCAASGFTFSSYALTWVRQAPGKGLEWVSFISGSGGRPFYADSVKGRFTISRDNSKNMLYLQMNSLRAEDTAIYYCAKSLYTTSWYGGFDSWGQGTLVTVSS
VL: B2 VL with F29V, S30V, T76S, N77S, A91S, L96F, F98L, G100P, E105D
notes: Human IgG4 Fc (H4H)
B5: H4H9664P (antibody, human IgG4, V domains shown)
VH: QVQLVESGGGVVQPGRSLRLSCAASGFTFSSYGLHWVRQSPGKGLEWVALISYDGSNKYYADSVKGRFTISRDNSKNTLYLQMNSLRPEDTAGYFCAKSLYTTSWYGGFDYWGQGTLVTVSS
VL: B2 VL with F29I, S30R, K45N, T76S, N77S, L96P, G100P, E105D
notes: Human IgG4 Fc (H4H)
B6: H1M9559N (antibody, mouse IgG1, V domains shown)
VH: QVQLVESGGGVVQPGRSLRLSCAASGFTFSSYGMHWVRQAPGKGLEWVAVIWYDGRNKYYTDSVKGRFTISRDNSKNTLYLQMDSLRAEDTAVYYCARERYISSYYGGFDPWGQGALVTVSS
VL: B2 VL with F29I, L46V, T76S, N77S, L96F, G100P, V104L, E105D
notes: Human variable domains, mouse IgG1 Fc (H1M)
B7: H4H9663P (antibody, human IgG4, V domains shown)
VH: QVQLVQSGAEVKKPGASVKVSCKASGYTFTGHYMYWMRQAPGQGLEWMGWINPNSGGTNYAQKFQDRVTMTRDTSISTAYMELSRLRSDDTAVYYCARGRYGSSWYGGFEYWGQGTLVTVSS
VL: B2 VL with F29I, S30T, K45N, S52A, T76S, N77S, A84T, N92Y, F94L
notes: Human IgG4 Fc (H4H)

Each binder was assayed against T1, human IL-33 (R&D Systems, …) (assay: SPR 25C, pH6.0 chase, mAb captured).
Protocol: (§1) Equilibrium dissociation constants (KD values) for IL-33 binding to purified anti-IL-33 monoclonal antibodies were determined using a real-time surface plasmon resonance biosensor using a Biacore 4000 instrument. The Biacore sensor surface was first derivatized by amine coupling with either a polyclonal rabbit anti-mouse antibody (GE, # BR-1008-38) or with a monoclonal mouse anti-human Fc antibody (GE, # BR-1008-39) to capture anti-IL-33 monoclonal antibodies expressed with mouse or with human IgG4 constant regions, respectively. All Biacore binding studies were performed in 0.01M ADA pH 7.4, 0.15M NaCl, 3 mM EDTA, and 0.05% v/v Surfactant Tween-20 (ABS-ET running buffer). […] Association of either hIL-33 or MfIL-33-6His to the captured monoclonal antibody was monitored for 4 minutes and their dissociation in ABS-ET running buffer was monitored for 10 minutes. The effect of reduced pH on the binding of each anti-IL-33 antibody to either hIL-33 or MfIL-33-6His was studied using an in-line pH chase assay format in 0.01M ADA pH 6.0, 0.15M NaCl, 3 mM EDTA, and 0.05% v/v Surfactant Tween-20 (ABS-ET pH6 buffer). To achieve this, association of either hIL-33 or MfIL-33-6His to the captured monoclonal antibody was monitored for 4 minutes in ABS-ET running buffer. Following a 30 second dissociation of either hIL-33 or MfIL-33-6His in ABS-ET running buffer, ABS-ET pH6 buffer was injected for 3 minutes, and the analyte dissociation under the low-pH conditions was measured. All the binding kinetic experiments were performed at both 25° C. and 37° C. Kinetic association (kₐ) and dissociation (kd) constants were determined by fitting the real-time sensorgrams to a 1:1 binding model using Scrubber 2.0c curve fitting software. Binding dissociation equilibrium constants (KD) and dissociative half-lives (t½) were calculated from the kinetic rate constants as: […]

Binder	koff [s⁻¹]	t½ [min]	t½ Ratio (pH 7.4/pH 6.0)
B1	0.000657	18	2.8
B2	0.00128	9	5.7
B3	0.000708	16	3.2
B4	0.000826	14	3.3
B5	0.000823	14	3.2
B6	0.000187	62	0.7
B7	0.0011	11	2.7

Biological target: T2, cynomolgus monkey IL-33 expressed with …
Test: SPR 25C, pH6.0 chase, mAb captured
Protocol: as §1

Binder	koff [s⁻¹]	t½ [min]	t½ Ratio (pH 7.4/pH 6.0)
B1	0.000501	23	0.4
B2	0.0358	0.3	2.7
B3	0.00108	11	0.7
B4	0.000117	99	0.3
B5	0.00048	24	0.3
B6	0.00152	8	1.2
B7	0.000683	17	0.7

Biological target: T2, cynomolgus monkey IL-33 expressed with …
Test: BLI; captured MfIL-33-6His, mAb-1 step with Isotype control
Protocol: Binding competition between a panel of different anti-IL-33 monoclonal antibodies was determined using a real time, label-free bio-layer interferometry assay on an Octet® HTX biosensor (ForteBio, A Division of Pall Life Sciences). The experiment was performed at 25° C. using a buffer of 0.01M HEPES pH7.4, 0.15M NaCl, 3 mM EDTA, 0.05% v/v Surfactant Tween-20, and 0.1 mg/ml BSA (HBS-ET kinetics buffer) with the plate shaking at a speed of 1000 rpm. […] The antigen-captured biosensors were then saturated with a first anti-IL-33 monoclonal antibody (subsequently referred to as mAb-1) by immersion into wells containing 50 μg/mL solution of mAb-1 for 5 minutes. The biosensors were then dipped into wells containing a 50 μg/mL solution of a second anti-IL-33 monoclonal antibody (subsequently referred to as mAb-2) for 4 minutes. The biosensors were washed in HBS-ET kinetics buffer in between every step of the experiment. The real-time binding response was monitored during the experiment, and the maximum binding response for each binding step was recorded. The response of mAb-2 binding to MfIL-33-6His pre-complexed with mAb-1 was measured, and competitive/non-competitive behavior of different anti-IL-33 monoclonal antibodies with respect to each other was determined.

Binder	mAb-2 Binding to the Pre-complex of mAb-1 & MfIL-33-6xHis [nm]
B1	0.28
B2	0.26
B3	0.26
B4	0.22
B5	0.27
B6	0.21
B7	0.23

The binders below were run against T1, human IL-33 (R&D Systems, …) (assay: cell-based or functional assay).

Binder	IC50, blocking of IFN-γ release from human PBMC induced by 260 pM hIL-33, donor #603486 [M]	IC50, blocking of IFN-γ release from human PBMC induced by 260 pM hIL-33, donor #603487 [M]
B1	4.42e-09	1.22e-08
B2	8.15e-10	5.21e-09
B3	6.67e-10	2.91e-09
B4	9.64e-10	3.02e-09
B5	3.98e-09	6.08e-09
B7	1.24e-08	2.2e-08

What follows are binders tested against T1, human IL-33 (R&D Systems, …) (assay: BLI; hIL-33 pre-mixed with mAb-2 Isotype control 2).
Protocol: Binding competition between a panel of different anti-IL-33 monoclonal antibodies was determined using a real time, label-free bio-layer interferometry assay on an Octet® HTX biosensor (ForteBio, A Division of Pall Life Sciences). The experiment was performed at 25° C. using a buffer of 0.01M HEPES pH7.4, 0.15M NaCl, 0.05% v/v Surfactant Tween-20, and 0.1 mg/ml BSA (HBS-ET kinetics buffer) with the plate shaking at a speed of 1000 rpm. To assess whether two antibodies were able to compete with one another for binding to human IL-33, a pre-mix assay format was used where 100 nM of human IL-33 (R&D Systems; #3625-IL-010/CF) was pre-mixed with 500 nM of different anti-IL-33 monoclonal antibodies (subsequently referred to as mAb-2) for at least 2 hours prior to running the binding competition assay. […] Following the capture step, unoccupied anti-mouse Fc polyclonal antibody and anti-human Fc polyclonal antibody on the Octet biosensors were saturated by submerging them for 4 minutes into wells containing 200 μg/mL of a non-specific monoclonal antibody with a mouse Fc or with a human Fc, respectively. Finally, the Octet biosensors were immersed for 4 minutes into wells containing the pre-mixed samples of 100 nM of human IL-33 and 500 nM of mAb-2. At the end of each cycle, the non-covalently captured anti-IL-33 antibodies along with the bound pre-complex of human IL-33 and mAb-2 were removed from the biosensors using three alternate 20 second immersions into 10 mM HCl followed by submerging into HBS-ET kinetics buffer. The biosensors were washed in HBS-ET kinetics buffer in between every step of the experiment. The real-time binding response was monitored during the binding events, and the binding response (in units of nm) at the end of every step was recorded.

Binder	mAb-1 Binding to the Pre-complex of mAb-2 & hIL-33 [nm]
B1	0.1
B2	0.14
B3	0.15
B4	0.11
B5	0.1
B6	0.11
B7	0.09
